We go through two molecules from patent publication US20260008815A1, “CYCLIC PEPTIDE OR SALT THEREOF, AND USES THEREOF” (FUJIFILM Corporation, priority 2023, published 2026).

Bridge positions count the residues as written; N and C are the ends. Ends that are not written are not given here. COCH2 = acetyl group that carries the bridge A value given as a limit tells only on which side of the number the result lay.

One test deals with bovine myoblasts. In words: Bovine myoblast proliferation-promoting effect. It is filed as cell-based, Japanese Black cattle. The settings on record: of 30 ng/mL bFGF (=100, negative control =0); 0.03 to 10 nmol/L complex, 4 days. The protocol: The bovine cells (myoblasts) proliferation-promoting effect of the cyclic peptide complex was evaluated.
Bovine myoblasts were separated from bovine muscle tissue by the following method. First, muscle tissue of Japanese Black cattle was finely chopped in HBSS (−) (phenol red-free) (FUJIFILM Wako Pure Chemical Corporation, 085-09355), and then pronase from Streptomyces griseus (Sigma-Aldrich, 10165921001) was added thereto to a final concentration of 1 mg/mL, and the mixture was allowed to stand at 37° C. for 1 hour. After allowing to stand, HBSS containing 10% FBS was added thereto, and the cells were acquired by centrifugation. The acquired cells were suspended in D-MEM (high glucose) (containing L-glutamine and phenol red) (FUJIFILM Wako Pure Chemical Corporation, 044-29765) containing 10% final concentration of bovine serum and 30 ng/mL bFGF. Suspended cells were cultured in a culture flask coated with an iMatrix-511 solution (FUJIFILM Wako Pure Chemical Corporation, 381-07363) at 0.55 μg/cm^2. […]
The evaluation of the proliferation-promoting effect on bovine myoblasts was performed by the following method. […] The number of viable cells was calculated from the imaging data and normalized by setting the number of viable cells in the well to which 30 ng/mL bFGF was added to 100, and setting the number of viable cells in the negative control well to 0.

For test [1], the target named is T1, FGFR1 Protein, Human, Recombinant (His Tag) (Sino Biological, 10616-H08H) (human, UniProt P11362 22-376).
T1 construct: bought; not shown: His tag
T1 sequence (looked up): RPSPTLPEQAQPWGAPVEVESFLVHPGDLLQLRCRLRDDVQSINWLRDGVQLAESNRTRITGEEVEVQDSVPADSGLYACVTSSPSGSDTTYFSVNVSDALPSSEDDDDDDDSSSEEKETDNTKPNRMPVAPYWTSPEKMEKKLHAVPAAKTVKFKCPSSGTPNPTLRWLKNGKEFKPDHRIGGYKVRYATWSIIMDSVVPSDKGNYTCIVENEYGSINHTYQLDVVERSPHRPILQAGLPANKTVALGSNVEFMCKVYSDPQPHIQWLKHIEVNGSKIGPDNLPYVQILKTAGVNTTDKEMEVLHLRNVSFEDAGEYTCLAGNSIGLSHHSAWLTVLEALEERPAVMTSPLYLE
In words: SPR, 1 umol/L FGFR over immobilized peptide. The method, then: (§1) Next, 70 μL of a mixed aqueous solution of 0.2 mol/L 1-(3-dimethylaminopropyl)-3-ethylcarbodiimide (EDC) and 0.05 mol/L N-hydroxysuccinimide (NHS) was added to activate the sensor chip. Then, a cyclic peptide prepared to 2 mg/mL in HBS-EP buffer was added thereto to perform immobilization at about 200 RU. Thereafter, the blocking treatment was performed with an ethanolamine solution. In addition, in another flow channel of the same sensor chip, blocking treatment was performed immediately after activation without immobilizing FGFR.
(§2) After various FGFRs (FGFR1 Protein, Human, Recombinant (His Tag) (Sino Biological, 10616-H08H), FGFR2 Protein, Human, Recombinant (His Tag) (Sino Biological, 10824-H08H), FGFR3 Protein, Human, Recombinant (ECD, His Tag) (Sino Biological, 16044-H08H), FGFR4 Protein, Human, Recombinant (His Tag) (Sino Biological, 10538-H08H)) diluted with HBS-EP to 1 μmol/L at 25° C. was added to each flow channel of the cyclic peptide-immobilized sensor chip prepared above, for 10 minutes, HBS-EP was allowed to flow as a running buffer for 30 minutes, and the binding of various FGFRs to the cyclic peptide was measured. Thereafter, a regeneration treatment of removing the bound FGFR was performed by repeating the flow of a regeneration liquid in which sodium chloride (final concentration: 0.4 mol/L) and a sodium dodecyl sulfate aqueous solution (mixed concentration: 1%, final concentration: 0.2%) were dissolved in Glysine 1.5 (Cytiva, BR100354) for 1 minute in each flow channel twice. The binding amount of the cyclic peptide was evaluated from the difference between the measured value of Biacore-T200 in the flow channel in which the cyclic peptide was immobilized and the measured value of Biacore-T200 in the flow channel in which the cyclic peptide was not immobilized, in a case where 1 μmol/L FGFR was allowed to flow.
(§3) The binding amount of FGFR evaluated above was normalized to the binding amount of FGFR molecules per one molecule of the cyclic peptide using the molecular weights of the cyclic peptide and FGFR, and the binding affinity to FGFR was evaluated according to the following evaluation criteria. The evaluation result preferably satisfies the evaluation criteria A, B, or C.
In general terms: Surface plasmon resonance follows binding to a sensor surface in real time, without labels.

Test [2] concerns the target T2, FGFR2 Protein, Human, Recombinant (His Tag) (Sino Biological, 10824-H08H) (human, UniProt P21802 22-377).
T2 construct: bought; not shown: His tag
In words: SPR, 1 umol/L FGFR over immobilized peptide. The protocol:
as §1, §2, §3

Test [3] has as its target T3, FGFR3 Protein, Human, Recombinant (ECD, His Tag) (Sino Biological, 16044-H08H) (human, UniProt P22607 23-375).
T3 construct: extracellular domain; bought; not shown: His tag
T3 sequence (looked up): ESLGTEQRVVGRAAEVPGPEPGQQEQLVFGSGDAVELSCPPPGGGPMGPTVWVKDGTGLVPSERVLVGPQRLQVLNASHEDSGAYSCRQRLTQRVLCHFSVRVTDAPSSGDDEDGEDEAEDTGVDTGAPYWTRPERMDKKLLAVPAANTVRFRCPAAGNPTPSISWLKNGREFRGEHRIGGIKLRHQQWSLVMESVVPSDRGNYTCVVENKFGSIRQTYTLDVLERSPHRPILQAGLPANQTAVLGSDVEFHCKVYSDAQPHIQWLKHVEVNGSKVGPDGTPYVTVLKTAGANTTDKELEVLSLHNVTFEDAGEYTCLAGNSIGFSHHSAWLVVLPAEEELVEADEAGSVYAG
Nature of the test: SPR, 1 umol/L FGFR over immobilized peptide. The method, then:
as §1, §2, §3

The target in test [4] is T4, FGFR4 Protein, Human, Recombinant (His Tag) (Sino Biological, 10538-H08H) (human, UniProt P22455 22-369).
T4 construct: bought; not shown: His tag
T4 sequence (looked up): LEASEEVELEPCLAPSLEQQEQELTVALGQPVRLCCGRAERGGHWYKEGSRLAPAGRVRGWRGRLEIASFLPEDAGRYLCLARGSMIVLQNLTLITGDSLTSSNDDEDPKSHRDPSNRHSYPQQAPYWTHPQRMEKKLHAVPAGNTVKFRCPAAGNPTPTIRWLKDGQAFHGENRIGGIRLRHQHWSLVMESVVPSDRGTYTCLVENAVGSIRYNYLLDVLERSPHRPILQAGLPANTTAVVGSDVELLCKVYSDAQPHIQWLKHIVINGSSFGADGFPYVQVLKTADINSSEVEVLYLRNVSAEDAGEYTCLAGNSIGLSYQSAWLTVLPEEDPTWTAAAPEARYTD
Nature of the test: SPR, 1 umol/L FGFR over immobilized peptide. The protocol:
as §1, §2, §3

For test [5], the target named is T5, Recombinant Human FGFR2 alpha (IIIc) Fc Chimera Protein, CF (R&D systems, 712-FR-050) (human, UniProt P21802 22-377).
T5 construct: bought; not shown: Fc part of the chimera
Nature of the test: SPR, 10 nmol/L peptide over immobilized FGFR2-Fc. The protocol:
A CM5 sensor chip (Cytiva, 29149603) was set in Biacore-T200 (manufactured by Cytiva) which is a surface plasmon resonance device, and an HBS-EP buffer (Cytiva, BR100826) was added as a running buffer at a flow rate of 10 μL/min to equilibrate the flow channel. Next, 70 μL of a mixed aqueous solution of 0.2 mol/L 1-(3-dimethylaminopropyl)-3-ethylcarbodiimide (EDC) and 0.05 mol/L N-hydroxysuccinimide (NHS) was added to activate the sensor chip. Then, Recombinant Human FGFR2 alpha (IIIc) Fc Chimera Protein CF (R&D systems, 712-FR-050) prepared at 50 nmol/L in an Acetate 4.5 buffer (Cytiva, BR100350) was added thereto to perform immobilization at about 5000 RU. Thereafter, the blocking treatment was performed with an ethanolamine solution. In addition, in another flow channel of the same sensor chip, blocking treatment was performed immediately after activation without immobilizing FGFR.
A cyclic peptide diluted to 10 nmol/L using HBS-EP was added to each flow channel of the FGFR-immobilized sensor chip produced above at 25° C. for 10 minutes, then HBS-EP was allowed to flow as a running buffer for 30 minutes, and the binding of the cyclic peptide to FGFR was measured. Thereafter, a regeneration treatment of removing the bound cyclic peptide was performed by repeating the flow of a regeneration liquid in which sodium chloride powder was dissolved in Glysine 1.5 (Cytiva, BR100354) to a final concentration of 0.15 mol/L for 1 minute in each flow channel twice. The binding amount of the cyclic peptide was evaluated from the difference between the measured value of Biacore-T200 in the flow channel in which FGFR was immobilized and the measured value of Biacore-T200 in the flow channel in which FGFR was not immobilated, in a case where a 10 nmol/L cyclic peptide was allowed to flow.

T2 sequence (P21802 22-377 limits assumed): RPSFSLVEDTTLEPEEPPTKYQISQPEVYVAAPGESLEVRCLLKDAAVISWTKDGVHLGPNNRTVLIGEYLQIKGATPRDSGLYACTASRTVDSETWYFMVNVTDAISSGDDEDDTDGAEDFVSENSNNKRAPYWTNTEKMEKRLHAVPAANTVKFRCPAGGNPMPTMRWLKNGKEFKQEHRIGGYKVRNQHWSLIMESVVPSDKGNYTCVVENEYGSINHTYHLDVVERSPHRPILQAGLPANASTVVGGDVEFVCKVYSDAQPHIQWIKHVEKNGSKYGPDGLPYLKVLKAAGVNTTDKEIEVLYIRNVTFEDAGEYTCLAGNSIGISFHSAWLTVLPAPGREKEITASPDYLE
T5 sequence (P21802 22-377, change not shown): as the sequence (P21802 22-377 limits assumed) above

Turning to “Q-(C)-PQNFINPVQWRYFQHY-(K(acetyl))-NK (QCPQNFINPVQWRYFQHYK(COCH2)NKQCPQNFINPVQWRYFQHYK(COCH2)NK; thioether 2-19, 23-40; not fully specified (N-terminus, bridges); also: Bis-NHS-PEG9 crosslink, dimer of two 21-mers) [SEQ ID NO: 458, cyclic peptide complex; N-terminal acetylation, crosslinking between side chain amino groups of K via Bis-NHS-PEG9]”, the “bovine myoblast proliferation action” value with bovine myoblasts is on record as “about 40%”.
Turning to YCEENYLDPEQYQYFIYFK(COCH2)YKKK (thioether 2-19, chemically synthesized) [cyclic peptide SEQ ID NO: 450], the “binding amount (SPR, FGFR molecules bound per cyclic peptide molecule)” value in test [1] was 0.01 to 0.05 moleculesoffgfr/onemoleculeofthecyclicpeptide; in test [2] it was ≥ 0.05 moleculesoffgfr/onemoleculeofthecyclicpeptide; in test [3], 0.01 to 0.05 moleculesoffgfr/onemoleculeofthecyclicpeptide; in test [4], 0.01 to 0.05 moleculesoffgfr/onemoleculeofthecyclicpeptide. Further, in test [5], the “binding amount (SPR, cyclic peptide molecules bound per FGFR molecule at 10 nmol/L peptide)” value is ≥ 0.7 moleculesofthecyclicpeptide/onemoleculeoffgfr.
